1 substance from article doi:10.1101/2025.05.07.652675 can be followed below.

Values joined by “and” are separate entries in the source; they are usually repeats but may differ in a detail not shown here. Equal entries are not always repeated.

In the assay the target is ZapC^F30D and ZapC^K94D. Description: BLI. In general terms: Biolayer interferometry detects binding as a change in optical thickness at a sensor tip.

Sequence of FtsZ (wild type, untagged) (P0A9A6 whole entry): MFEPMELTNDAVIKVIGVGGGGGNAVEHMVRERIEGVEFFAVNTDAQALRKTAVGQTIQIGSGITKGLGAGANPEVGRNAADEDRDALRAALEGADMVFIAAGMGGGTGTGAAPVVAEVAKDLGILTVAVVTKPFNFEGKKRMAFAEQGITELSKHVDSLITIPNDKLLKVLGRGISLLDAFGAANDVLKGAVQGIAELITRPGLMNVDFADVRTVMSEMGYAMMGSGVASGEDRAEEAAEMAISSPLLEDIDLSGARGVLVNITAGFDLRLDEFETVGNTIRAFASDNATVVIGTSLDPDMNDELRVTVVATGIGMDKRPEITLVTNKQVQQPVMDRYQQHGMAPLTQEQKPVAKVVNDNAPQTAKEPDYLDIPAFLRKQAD

Turning to “FtsZ (wild type, untagged) (from UniProt P0A9A6 1-383) (natural protein)”, the binding affinity relative to wild-type ZapC (times lower) is 5 times and 7 times.
